The values that follow come from paper PMC5727538, “Comprehensive analysis of the catalytic and structural properties of a mu-class glutathione s-transferase from Fasciola gigantica” (Scientific Reports, 2017).

This data set concerns the molecule itself. Put plainly: SEC; Superdex 200 10/300 GL on AKTA-FPLC, 20 mM phosphate buffer pH 7.5, 150 mM NaCl, 0.3 mL/min; calibrated with molecular weight markers; elution at 15.4 mL, about 50 kDa.

B1: mu-class glutathione S-transferase from Fasciola gigantica (FgGST1) (enzyme)
chain: MPATLGYWKLRGLAQPIRLLLEFVGEKYEEQIYERDDGEKWFSKKFELGLDLPNLPYYIDDKCKLTQSLAILRYIADKHGMIGSTPEERARVSMIEGAAVDLRQGLSRISYDPKFEQLKEGYLKDLPTTMKMWSDFLGKNLYLRGTSVSHVDFMVYEALDAIRYLEPHCLDHFPNLQQFMSRIEALPSIKAYMESNRFIKWPLNGWHAQFGGGDAPPSHEKK
Consider B1, for which the stoichiometry N (as a rule, the number of molecules, sites or subunits per partner or assembly) stood at 2.
